From paper PMC4909763 (Frontiers in Plant Science, 2016)

Target: the molecule itself
Test: native gel or EMSA

B1: plant-made recombinant human butyrylcholinesterase, apoplast-targeted (prBChE) (enzyme, UniProt P06276 29-602, looked up)
chain: EDDIIIATKNGKVRGMNLTVFGGTVTAFLGIPYAQPPLGRLRFKKPQSLTKWSDIWNATKYANSCCQNIDQSFPGFHGSEMWNPNTDLSEDCLYLNVWIPAPKPKNATVLIWIYGGGFQTGTSSLHVYDGKFLARVERVIVVSMNYRVGALGFLALPGNPEAPGNMGLFDQQLALQWVQKNIAAFGGNPKSVTLFGESAGAASVSLHLLSPGSHSLFTRAILQSGSFNAPWAVTSLYEARNRTLNLAKLTGCSRENETEIIKCLRNKDPQEILLNEAFVVPYGTPLSVNFGPTVDGDFLTDMPDILLELGQFKKTQILVGVNKDEGTAFLVYGAPGFSKDNNSIITRKEFQEGLKIFFPGVSEFGKESILFHYTDWVDDQRPENYREALGDVVGDYNFICPALEFTKKFSEWGNNAFFYYFEHRSSKLPWPEWMGVMHGYEIEFVFGLPLERRDNYTKAEEILSRSIVKRWANFAKYGNPNETQNNSTSWPVFKSTEQKYLTLNTESTRIMTKLRAQQCRFWTSFFPKVLEMTGNIDEAEWEWKAGFHRWNNYMMDWKNQFNDYTSKKESCVGL
notes: also called prBuChE; prBChE-AWF
- stoichiometry N: 4

B2: ER-retained plant-made recombinant human butyrylcholinesterase (prBChE-ER) (enzyme)
chain: EDDIIIATKNGKVRGMNLTVFGGTVTAFLGIPYAQPPLGRLRFKKPQSLTKWSDIWNATKYANSCCQNIDQSFPGFHGSEMWNPNTDLSEDCLYLNVWIPAPKPKNATVLIWIYGGGFQTGTSSLHVYDGKFLARVERVIVVSMNYRVGALGFLALPGNPEAPGNMGLFDQQLALQWVQKNIAAFGGNPKSVTLFGESAGAASVSLHLLSPGSHSLFTRAILQSGSFNAPWAVTSLYEARNRTLNLAKLTGCSRENETEIIKCLRNKDPQEILLNEAFVVPYGTPLSVNFGPTVDGDFLTDMPDILLELGQFKKTQILVGVNKDEGTAFLVYGAPGFSKDNNSIITRKEFQEGLKIFFPGVSEFGKESILFHYTDWVDDQRPENYREALGDVVGDYNFICPALEFTKKFSEWGNNAFFYYFEHRSSKLPWPEWMGVMHGYEIEFVFGLPLERRDNYTKAEEILSRSIVKRWANFAKYGNPNETQNNSTSWPVFKSTEQKYLTLNTESTRIMTKLRAQQCRFWTSFFPKVLEMTGNIDEAEWEWKAGFHRWNNYMMDWKNQFNDYTSKKESCVGLKDEL
notes: also called prBChE+KDEL; rBChE+KDEL
- stoichiometry N: 4
